Measured values taken from patent US20040175378A1, “Selected antibody compositions and methods for binding to aminophospholipids” (Board of Regents, The University of Texas System, priority 2002, published 2004).

Columns and labels:
[1] = monkey, in vivo
mCMV RVG102 = test: Survival of mCMV-infected mice; assay type: in vivo, Balb/C mice; conditions: 1 mg/mouse i.p. day 1, 0.5 mg/mouse every four days until day 26; past 90 days
various tumors = test: 3G4 in syngeneic and xenogeneic tumor models, overall
tumor cells = test: Direct effect of 3G4 on tumor cells in vitro; assay type: cell-based
[2] = test system: orthotopic MDA-MB-231 breast cancer; test: 3G4 tumor treatment and histology; assay type: in vivo, mice
Method: FIG. 17A and FIG. 17B. […] At the conclusion of treatment, animals were perfused and tumors were snap-frozen, cut and stained with an antibody to murine CD31 (rat, anti-mouse CD31), a pan-endothelial marker of murine vasculature (FIG. 17A), or embedded in paraffin and strained with H&E (FIG. 17B).
In the orthotopic model, 1×10^7 cells in 0.1 ml DMEM are typically injected into MFP of anesthetized mice. Mice are anesthetized with 0.075 ml of mouse cocktail injected IP. The mouse cocktail is 5 ml Ketamine (100 mg/ml); 2.5 ml Xylazine (20 mg/ml); 1 ml Acepromazine (10 mg/ml); 11 ml sterile water. Dosage is 0.1 ml per 20-30 grams body weight via the IP route for a duration of 30 minutes.
Once the mouse is anesthetized, as measured by no response to toe/foot pinch, the mouse is laid on its left side and wiped with 70% ethanol just behind the head and around the right forearm/back area. […] 0.1 ml of cells are injected into the fat pad using a 1 ml syringe and a 27-gauge needle, producing a bleb in the fat pad. The incision is closed using a 9 mm sterile wound clip. The mouse is returned to its cage and observed until it has wakened from anesthesia and is mobile. Post-operative health status is determined, and if any signs of distress are observed, the animal is given acetaminophen (0.24 mg/ml)+codeine (0.024 mg/ml) in the drinking water. The wound clip is removed after 1 week. This method is used so that the cells are accurately placed into the selected site and not into the subcutaneous region. Tumors will be approximately 200 μl in volume (L×W×W) in 14-15 days and the take rate is essentially 100%.
(§1) Treatment was repeated 3 times a week. Animals were monitored twice a week for tumor measurements.

[3] = test system: L540 human Hodgkin's lymphoma; test: 3G4 tumor treatment; assay type: in vivo, mice; conditions: subcutaneous L540 xenografts
Method: In the subcutaneous model, mice are typically injected with 1×10^7 cells in 0.2 ml. Mice are not anesthetized, but are restrained using a steady grip of mouse skin exposing the right flank. A 1 ml syringe with a 23 gauge needle is used to inject 1×10^7 cells in 200 μl, just under the skin of the mice and a bleb will be seen. It is not unusual to observe a small amount of fluid leak from the injection site. A twisting motion may be used when withdrawing the needle from the subcutaneous injection to reduce this leakage. Tumor volume is measured by L×W×H.
as §1

Pichinde virus = assay type: cell-based
[4] = test system: H2O2-treated HL-60 tumor cells; test: Macrophage phagocytosis of PS-positive tumor cells; conditions: 5 μg/ml, vs isotype-matched control antibody

B1: 3G4: mouse IgG3 kappa monoclonal antibody binding PS and other anionic phospholipids; hybridoma ATCC PTA 4545 (antibody, V domains shown)
VH: EVQLQQSGPELEKPGASVKLSCKASGYSFTGYNMNWVKQSHGKSLEWIGHIDPYYGDTSYNQKFRGKATLTVDKSSSTAYMQLKSLTSEDSAVYYCVKGGYYGHWYFDVWGAGTTVTVSSATTTAPSVYPLVP
VL: DIQMTQSPSSLSASLGERVSLTCRASQDIGSSLNWLQQGPDGTIKRLIYATSSLDSGVPKRFSGSRSGSDYSLTISSLESEDFVDYYCLQYVSSPPTFGAGTKLELKRADAAPTVFIFGRIP
side effects [1]: no side effects have been observed | survival (mCMV RVG102): 100% | toxicity in treated tumor-bearing mice (various tumors; 100 μg i.p. 3 times a week): No toxicity was observed | localization after intravenous injection (various tumors; mice bearing various tumors): specifically and consistently localized to the tumor, but not to normal organs | direct inhibitory effect on tumor cells (tumor cells): No direct inhibitory effect on tumor cells was observed | mice with long-term complete remissions ([2]; MBA-MD-231 tumors): 30% | reduction in microvascular density, treated vs. untreated mice ([2]; histological examination): 70% | growth retardation ([2]; orthotopic MDA-MB-231): 50% | growth retardation [3]: 65% | infected cells (Pichinde virus): about one in about a hundred cells | increase in phagocytosis of PS-positive cells by macrophages [4]: more than three fold
